± gives the uncertainty stated by the source.
B1: Apoptosis-associated speck-like protein containing a CARD, residues 114 to 194; numbered along this chain, Q9ULZ3 (parent)
chain: FIDQHRAALIARVTNVEWLLDALYGKVLTDEQYQAVRAEPTNPSKMRKLFSFTPAWNWTCKDLLLQALRESQSYLVEDLER

Variants of: B1
Experiment: abundance fitness (aPCA) (normalised: wild type 0, dead -1); higher = more abundant; growth selection in yeast, the domain comes from the species named
Conditions: Homo sapiens
FIDQHRAALIARVTNVEWLLDALYGKVLTDEQYQAVRAEPTNPSKMRKLFSFTPAWNWECKDLLLQALRESQSYLVEDLER [T59E] showed an abundance fitness of 0.269 ± 0.069.
Work on FIDQHRAALIARVTNVEWLLDALYGKVLTDEQYQAVRAEPTNPSKMRKLFSFTPAWNWNCKDLLLQALRESQSYLVEDLER [T59N] yielded an abundance fitness of 0.018 ± 0.11.
Variant FIDQHRAALIARVTNVEWLLDALYGKVLTDEQYQAVRAEPTNPSKMRKLFSFTPAWNWPCKDLLLQALRESQSYLVEDLER [T59P] has an abundance fitness of -0.44 ± 0.071.
For FIDQHRAALIARVTNVEWLLDALYGKVLTDEQYQAVRAEPTNPSKMRKLFSFTPAWNWACKDLLLQALRESQSYLVEDLER [T59A], the abundance fitness was 0.109 ± 0.046.
FIDQHRAALIARVTNVEWLLDALYGKVLTDEQYQAVRAEPTNPSKMRKLFSFTPAWNWRCKDLLLQALRESQSYLVEDLER [T59R] gave an abundance fitness of 0.111 ± 0.042.
FIDQHRAALIARVTNVEWLLDALYGKVLTDEQYQAVRAEPTNPSKMRKLFSFTPAWNWGCKDLLLQALRESQSYLVEDLER [T59G] gave an abundance fitness of -0.019 ± 0.046.
For FIDQHRAALIARVTNVEWLLDALYGKVLTDEQYQAVRAEPTNPSKMRKLFSFTPAWNWFCKDLLLQALRESQSYLVEDLER [T59F], the abundance fitness was -0.023 ± 0.1.
In the case of FIDQHRAALIARVTNVEWLLDALYGKVLTDEQYQAVRAEPTNPSKMRKLFSFTPAWNWVCKDLLLQALRESQSYLVEDLER [T59V], the abundance fitness is reported as -0.128 ± 0.052.
For FIDQHRAALIARVTNVEWLLDALYGKVLTDEQYQAVRAEPTNPSKMRKLFSFTPAWNWICKDLLLQALRESQSYLVEDLER [T59I], the abundance fitness was -0.243 ± 0.088.
Work on FIDQHRAALIARVTNVEWLLDALYGKVLTDEQYQAVRAEPTNPSKMRKLFSFTPAWNWYCKDLLLQALRESQSYLVEDLER [T59Y] yielded an abundance fitness of -0.102 ± 0.1.
Variant FIDQHRAALIARVTNVEWLLDALYGKVLTDEQYQAVRAEPTNPSKMRKLFSFTPAWNWLCKDLLLQALRESQSYLVEDLER [T59L] has an abundance fitness of -0.149 ± 0.053.
With FIDQHRAALIARVTNVEWLLDALYGKVLTDEQYQAVRAEPTNPSKMRKLFSFTPAWNWDCKDLLLQALRESQSYLVEDLER [T59D] the abundance fitness was -0.007 ± 0.1.
Variant FIDQHRAALIARVTNVEWLLDALYGKVLTDEQYQAVRAEPTNPSKMRKLFSFTPAWNWCCKDLLLQALRESQSYLVEDLER [T59C] has an abundance fitness of -0.135 ± 0.079.
FIDQHRAALIARVTNVEWLLDALYGKVLTDEQYQAVRAEPTNPSKMRKLFSFTPAWNWMCKDLLLQALRESQSYLVEDLER [T59M] showed an abundance fitness of -0.084 ± 0.08.
Variant FIDQHRAALIARVTNVEWLLDALYGKVLTDEQYQAVRAEPTNPSKMRKLFSFTPAWNWWCKDLLLQALRESQSYLVEDLER [T59W] has an abundance fitness of 0.041 ± 0.057.
For FIDQHRAALIARVTNVEWLLDALYGKVLTDEQYQAVRAEPTNPSKMRKLFSFTPAWNWKCKDLLLQALRESQSYLVEDLER [T59K], the abundance fitness was 0 ± 0.079.
FIDQHRAALIARVTNVEWLLDALYGKVLTDEQYQAVRAEPTNPSKMRKLFSFTPAWNWSCKDLLLQALRESQSYLVEDLER [T59S] gave an abundance fitness of -0.04 ± 0.046.
FIDQHRAALIARVTNVEWLLDALYGKVLTDEQYQAVRAEPTNPSKMRKLFSFTPAWNYTCKDLLLQALRESQSYLVEDLER [W58Y] gave an abundance fitness of 0.203 ± 0.21.
Work on FIDQHRAALIARVTNVEWLLDALYGKVLTDEQYQAVRAEPTNPSKMRKLFSFTPAWNVTCKDLLLQALRESQSYLVEDLER [W58V] yielded an abundance fitness of 0.174 ± 0.054.
Variant FIDQHRAALIARVTNVEWLLDALYGKVLTDEQYQAVRAEPTNPSKMRKLFSFTPAWNSTCKDLLLQALRESQSYLVEDLER [W58S] has an abundance fitness of 0.306 ± 0.046.
Work on FIDQHRAALIARVTNVEWLLDALYGKVLTDEQYQAVRAEPTNPSKMRKLFSFTPAWNTTCKDLLLQALRESQSYLVEDLER [W58T] yielded an abundance fitness of 0.319 ± 0.059.
Work on FIDQHRAALIARVTNVEWLLDALYGKVLTDEQYQAVRAEPTNPSKMRKLFSFTPAWNQTCKDLLLQALRESQSYLVEDLER [W58Q] yielded an abundance fitness of 0.174 ± 0.058.
For FIDQHRAALIARVTNVEWLLDALYGKVLTDEQYQAVRAEPTNPSKMRKLFSFTPAWNRTCKDLLLQALRESQSYLVEDLER [W58R], the abundance fitness was 0.234 ± 0.037.
FIDQHRAALIARVTNVEWLLDALYGKVLTDEQYQAVRAEPTNPSKMRKLFSFTPAWNWTCKFLLLQALRESQSYLVEDLER [D62F] showed an abundance fitness of -0.195 ± 0.12.
FIDQHRAALIARVTNVEWLLDALYGKVLTDEQYQAVRAEPTNPSKMRKLFSFTPAWNWTCKELLLQALRESQSYLVEDLER [D62E] gave an abundance fitness of 0.047 ± 0.059.
With FIDQHRAALIARVTNVEWLLDALYGKVLTDEQYQAVRAEPTNPSKMRKLFSFTPAWNWTCKCLLLQALRESQSYLVEDLER [D62C] the abundance fitness was -0.265 ± 0.23.
FIDQHRAALIARVTNVEWLLDALYGKVLTDEQYQAVRAEPTNPSKMRKLFSFTPAWNWTCKGLLLQALRESQSYLVEDLER [D62G] showed an abundance fitness of -0.194 ± 0.06.
Work on FIDQHRAALIARVTNVEWLLDALYGKVLTDEQYQAVRAEPTNPSKMRKLFSFTPAWNWTCKKLLLQALRESQSYLVEDLER [D62K] yielded an abundance fitness of -0.088 ± 0.081.
With FIDQHRAALIARVTNVEWLLDALYGKVLTDEQYQAVRAEPTNPSKMRKLFSFTPAWNWTCKPLLLQALRESQSYLVEDLER [D62P] the abundance fitness was -0.768 ± 0.11.
FIDQHRAALIARVTNVEWLLDALYGKVLTDEQYQAVRAEPTNPSKMRKLFSFTPAWNWTCKLLLLQALRESQSYLVEDLER [D62L] showed an abundance fitness of -0.43 ± 0.073.
For FIDQHRAALIARVTNVEWLLDALYGKVLTDEQYQAVRAEPTNPSKMRKLFSFTPAWNWTCKNLLLQALRESQSYLVEDLER [D62N], the abundance fitness was -0.207 ± 0.16.
FIDQHRAALIARVTNVEWLLDALYGKVLTDEQYQAVRAEPTNPSKMRKLFSFTPAWNWTCKILLLQALRESQSYLVEDLER [D62I] showed an abundance fitness of -0.581 ± 0.17.
Variant FIDQHRAALIARVTNVEWLLDALYGKVLTDEQYQAVRAEPTNPSKMRKLFSFTPAWNWTCKALLLQALRESQSYLVEDLER [D62A] has an abundance fitness of -0.083 ± 0.066.
In the case of FIDQHRAALIARVTNVEWLLDALYGKVLTDEQYQAVRAEPTNPSKMRKLFSFTPAWNWTCKMLLLQALRESQSYLVEDLER [D62M], the abundance fitness is reported as -0.295 ± 0.1.
